Legend:
[1] = molecular target: recombinant human PDGF-BB (human, UniProt P01127 82-190); experiment: cell-based or functional assay
Target sequence in this assay (P01127 82-190 limits assumed): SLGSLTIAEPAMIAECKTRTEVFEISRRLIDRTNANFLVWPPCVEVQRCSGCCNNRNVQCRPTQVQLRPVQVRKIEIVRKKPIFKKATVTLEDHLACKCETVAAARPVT

[2] = molecular target: recombinant human PDGF-BB (human, UniProt P01127 82-190); experiment: cell-based or functional assay; remark: listed apart in the source
Target sequence in this assay (P01127 82-190 limits assumed): as above

NIH-3T3 hPDGF-BB Potency IC50 [1] [pM]	Potency IC50 (nM) NIH-3T3 hPDGF-BB [2] [nM]	Binder
148		9A8.12-SL-9E8.4E DVD-Ig (PR-1577166) (bispecific antibody, human IgG1, kappa, L234A L235A) heavy: EVQLVQSGAEVKKPGASVKVSCKASGYTFTNYGMYWVRQAPGQGLEWMGWINTETGKPIYADDFKGRVTMTTDTSTSTAYMELRSLRSDDTAVYYCARVDYDGSFWFAYWGQGTLVTVSSASTKGPEVTLRESGPALVKPTQTLTLTCTFSGFSLSTYGMGVGWIRQPPGKALEWLANIWWDDDKYYNPSLKNRLTISKDTSKNQVVLTMTNMDPVDTATYYCARIESIGTTYSFDYWGQGTMVTVSSASTKGPSVFPLAPSSKSTSGGTAALGCLVKDYFPEPVTVSWNSGALTSGVHTFPAVLQSSGLYSLSSVVTVPSSSLGTQTYICNVNHKPSNTKVDKKVEPKSCDKTHTCPPCPAPEAAGGPSVFLFPPKPKDTLMISRTPEVTCVVVDVSHEDPEVKFNWYVDGVEVHNAKTKPREEQYNSTYRVVSVLTVLHQDWLNGKEYKCKVSNKALPAPIEKTISKAKGQPREPQVYTLPPSREEMTKNQVSLTCLVKGFYPSDIAVEWESNGQPENNYKTTPPVLDSDGSFFLYSKLTVDKSRWQQGNVFSCSVMHEALHNAYTQKSLSLSPGK light: DTQLTQSPSSLSASVGDRVTITCRASESVSTVIHWYQQKPGKQPKLLIHGASNLESGVPSRFSGSGSGTDFTLTISSLQPEDFATYFCQQHWNDPPTFGQGTKLEIKRTVAAPSVFIFPPEFVLTQSPGTLSLSPGERATLSCERSSGDIGESYVSWYQQKPGQAPRLVIYADDQRPSGIPDRFSGSGSGTDFTLTISRLEPEDFAVYYCQSYDINIDIVFGGGTKVEIKRTVAAPSVFIFPPSDEQLKSGTASVVCLLNNFYPREAKVQWKVDNALQSGNSQESVTEQDSKDSTYSLSSTLTLSKADYEKHKVYACEVTHQGLSSPVTKSFNRGEC
133		9A8.12-LS-9E8.4E DVD-Ig (PR-1577547) (bispecific antibody, human IgG1, kappa, L234A L235A) heavy: EVQLVQSGAEVKKPGASVKVSCKASGYTFTNYGMYWVRQAPGQGLEWMGWINTETGKPIYADDFKGRVTMTTDTSTSTAYMELRSLRSDDTAVYYCARVDYDGSFWFAYWGQGTLVTVSSASTKGPSVFPLAPEVTLRESGPALVKPTQTLTLTCTFSGFSLSTYGMGVGWIRQPPGKALEWLANIWWDDDKYYNPSLKNRLTISKDTSKNQVVLTMTNMDPVDTATYYCARIESIGTTYSFDYWGQGTMVTVSSASTKGPSVFPLAPSSKSTSGGTAALGCLVKDYFPEPVTVSWNSGALTSGVHTFPAVLQSSGLYSLSSVVTVPSSSLGTQTYICNVNHKPSNTKVDKKVEPKSCDKTHTCPPCPAPEAAGGPSVFLFPPKPKDTLMISRTPEVTCVVVDVSHEDPEVKFNWYVDGVEVHNAKTKPREEQYNSTYRVVSVLTVLHQDWLNGKEYKCKVSNKALPAPIEKTISKAKGQPREPQVYTLPPSREEMTKNQVSLTCLVKGFYPSDIAVEWESNGQPENNYKTTPPVLDSDGSFFLYSKLTVDKSRWQQGNVFSCSVMHEALHNAYTQKSLSLSPGK light: DTQLTQSPSSLSASVGDRVTITCRASESVSTVIHWYQQKPGKQPKLLIHGASNLESGVPSRFSGSGSGTDFTLTISSLQPEDFATYFCQQHWNDPPTFGQGTKLEIKRTVAAPEFVLTQSPGTLSLSPGERATLSCERSSGDIGESYVSWYQQKPGQAPRLVIYADDQRPSGIPDRFSGSGSGTDFTLTISRLEPEDFAVYYCQSYDINIDIVFGGGTKVEIKRTVAAPSVFIFPPSDEQLKSGTASVVCLLNNFYPREAKVQWKVDNALQSGNSQESVTEQDSKDSTYSLSSTLTLSKADYEKHKVYACEVTHQGLSSPVTKSFNRGEC
	0.066	9E8.4E-LS-9A8.12 (bispecific antibody, human IgG1, kappa, L234A L235A) heavy: EVTLRESGPALVKPTQTLTLTCTFSGFSLSTYGMGVGWIRQPPGKALEWLANIWWDDDKYYNPSLKNRLTISKDTSKNQVVLTMTNMDPVDTATYYCARIESIGTTYSFDYWGQGTMVTVSSASTKGPSVFPLAPEVQLVQSGAEVKKPGASVKVSCKASGYTFTNYGMYWVRQAPGQGLEWMGWINTETGKPIYADDFKGRVTMTTDTSTSTAYMELRSLRSDDTAVYYCARVDYDGSFWFAYWGQGTLVTVSSASTKGPSVFPLAPSSKSTSGGTAALGCLVKDYFPEPVTVSWNSGALTSGVHTFPAVLQSSGLYSLSSVVTVPSSSLGTQTYICNVNHKPSNTKVDKKVEPKSCDKTHTCPPCPAPEAAGGPSVFLFPPKPKDTLMISRTPEVTCVVVDVSHEDPEVKFNWYVDGVEVHNAKTKPREEQYNSTYRVVSVLTVLHQDWLNGKEYKCKVSNKALPAPIEKTISKAKGQPREPQVYTLPPSREEMTKNQVSLTCLVKGFYPSDIAVEWESNGQPENNYKTTPPVLDSDGSFFLYSKLTVDKSRWQQGNVFSCSVMHEALHNAYTQKSLSLSPGK light: EFVLTQSPGTLSLSPGERATLSCERSSGDIGESYVSWYQQKPGQAPRLVIYADDQRPSGIPDRFSGSGSGTDFTLTISRLEPEDFAVYYCQSYDINIDIVFGGGTKVEIKRTVAAPDTQLTQSPSSLSASVGDRVTITCRASESVSTVIHWYQQKPGKQPKLLIHGASNLESGVPSRFSGSGSGTDFTLTISSLQPEDFATYFCQQHWNDPPTFGQGTKLEIKRTVAAPSVFIFPPSDEQLKSGTASVVCLLNNFYPREAKVQWKVDNALQSGNSQESVTEQDSKDSTYSLSSTLTLSKADYEKHKVYACEVTHQGLSSPVTKSFNRGEC
204		9A8.12-GS-9E8.4E DVD-Ig (PR-1577165) (bispecific antibody, human IgG1, kappa, L234A L235A) heavy: EVQLVQSGAEVKKPGASVKVSCKASGYTFTNYGMYWVRQAPGQGLEWMGWINTETGKPIYADDFKGRVTMTTDTSTSTAYMELRSLRSDDTAVYYCARVDYDGSFWFAYWGQGTLVTVSSGGGGSGGGGSEVTLRESGPALVKPTQTLTLTCTFSGFSLSTYGMGVGWIRQPPGKALEWLANIWWDDDKYYNPSLKNRLTISKDTSKNQVVLTMTNMDPVDTATYYCARIESIGTTYSFDYWGQGTMVTVSSASTKGPSVFPLAPSSKSTSGGTAALGCLVKDYFPEPVTVSWNSGALTSGVHTFPAVLQSSGLYSLSSVVTVPSSSLGTQTYICNVNHKPSNTKVDKKVEPKSCDKTHTCPPCPAPEAAGGPSVFLFPPKPKDTLMISRTPEVTCVVVDVSHEDPEVKFNWYVDGVEVHNAKTKPREEQYNSTYRVVSVLTVLHQDWLNGKEYKCKVSNKALPAPIEKTISKAKGQPREPQVYTLPPSREEMTKNQVSLTCLVKGFYPSDIAVEWESNGQPENNYKTTPPVLDSDGSFFLYSKLTVDKSRWQQGNVFSCSVMHEALHNAYTQKSLSLSPGK light: DTQLTQSPSSLSASVGDRVTITCRASESVSTVIHWYQQKPGKQPKLLIHGASNLESGVPSRFSGSGSGTDFTLTISSLQPEDFATYFCQQHWNDPPTFGQGTKLEIKRGGSGGGGSGEFVLTQSPGTLSLSPGERATLSCERSSGDIGESYVSWYQQKPGQAPRLVIYADDQRPSGIPDRFSGSGSGTDFTLTISRLEPEDFAVYYCQSYDINIDIVFGGGTKVEIKRTVAAPSVFIFPPSDEQLKSGTASVVCLLNNFYPREAKVQWKVDNALQSGNSQESVTEQDSKDSTYSLSSTLTLSKADYEKHKVYACEVTHQGLSSPVTKSFNRGEC
147		9E8.4E-SL-9A8.12 DVD-Ig (PR-1577548) (bispecific antibody, human IgG1, kappa, L234A L235A) heavy: EVTLRESGPALVKPTQTLTLTCTFSGFSLSTYGMGVGWIRQPPGKALEWLANIWWDDDKYYNPSLKNRLTISKDTSKNQVVLTMTNMDPVDTATYYCARIESIGTTYSFDYWGQGTMVTVSSASTKGPEVQLVQSGAEVKKPGASVKVSCKASGYTFTNYGMYWVRQAPGQGLEWMGWINTETGKPIYADDFKGRVTMTTDTSTSTAYMELRSLRSDDTAVYYCARVDYDGSFWFAYWGQGTLVTVSSASTKGPSVFPLAPSSKSTSGGTAALGCLVKDYFPEPVTVSWNSGALTSGVHTFPAVLQSSGLYSLSSVVTVPSSSLGTQTYICNVNHKPSNTKVDKKVEPKSCDKTHTCPPCPAPEAAGGPSVFLFPPKPKDTLMISRTPEVTCVVVDVSHEDPEVKFNWYVDGVEVHNAKTKPREEQYNSTYRVVSVLTVLHQDWLNGKEYKCKVSNKALPAPIEKTISKAKGQPREPQVYTLPPSREEMTKNQVSLTCLVKGFYPSDIAVEWESNGQPENNYKTTPPVLDSDGSFFLYSKLTVDKSRWQQGNVFSCSVMHEALHNAYTQKSLSLSPGK light: EFVLTQSPGTLSLSPGERATLSCERSSGDIGESYVSWYQQKPGQAPRLVIYADDQRPSGIPDRFSGSGSGTDFTLTISRLEPEDFAVYYCQSYDINIDIVFGGGTKVEIKRTVAAPSVFIFPPDTQLTQSPSSLSASVGDRVTITCRASESVSTVIHWYQQKPGKQPKLLIHGASNLESGVPSRFSGSGSGTDFTLTISSLQPEDFATYFCQQHWNDPPTFGQGTKLEIKRTVAAPSVFIFPPSDEQLKSGTASVVCLLNNFYPREAKVQWKVDNALQSGNSQESVTEQDSKDSTYSLSSTLTLSKADYEKHKVYACEVTHQGLSSPVTKSFNRGEC
	0.327	9E8.4E-GS-9A8.12 (bispecific antibody, human IgG1, kappa, L234A L235A) heavy: EVTLRESGPALVKPTQTLTLTCTFSGFSLSTYGMGVGWIRQPPGKALEWLANIWWDDDKYYNPSLKNRLTISKDTSKNQVVLTMTNMDPVDTATYYCARIESIGTTYSFDYWGQGTMVTVSSGGGGSGGGGSEVQLVQSGAEVKKPGASVKVSCKASGYTFTNYGMYWVRQAPGQGLEWMGWINTETGKPIYADDFKGRVTMTTDTSTSTAYMELRSLRSDDTAVYYCARVDYDGSFWFAYWGQGTLVTVSSASTKGPSVFPLAPSSKSTSGGTAALGCLVKDYFPEPVTVSWNSGALTSGVHTFPAVLQSSGLYSLSSVVTVPSSSLGTQTYICNVNHKPSNTKVDKKVEPKSCDKTHTCPPCPAPEAAGGPSVFLFPPKPKDTLMISRTPEVTCVVVDVSHEDPEVKFNWYVDGVEVHNAKTKPREEQYNSTYRVVSVLTVLHQDWLNGKEYKCKVSNKALPAPIEKTISKAKGQPREPQVYTLPPSREEMTKNQVSLTCLVKGFYPSDIAVEWESNGQPENNYKTTPPVLDSDGSFFLYSKLTVDKSRWQQGNVFSCSVMHEALHNAYTQKSLSLSPGK light: EFVLTQSPGTLSLSPGERATLSCERSSGDIGESYVSWYQQKPGQAPRLVIYADDQRPSGIPDRFSGSGSGTDFTLTISRLEPEDFAVYYCQSYDINIDIVFGGGTKVEIKRGGSGGGGSGDTQLTQSPSSLSASVGDRVTITCRASESVSTVIHWYQQKPGKQPKLLIHGASNLESGVPSRFSGSGSGTDFTLTISSLQPEDFATYFCQQHWNDPPTFGQGTKLEIKRTVAAPSVFIFPPSDEQLKSGTASVVCLLNNFYPREAKVQWKVDNALQSGNSQESVTEQDSKDSTYSLSSTLTLSKADYEKHKVYACEVTHQGLSSPVTKSFNRGEC

Source: patent publication US20170015742A1 (published 2017)
